Substitutions are numbered along the chain they refer to.
B1: 18I 31L 73G 72A (protein, listed as Rattus norvegicus)
chain: AFDGTWKVDRNENYEKFIEKMGINVVKRKLLAHDNLKLTITQEGNKFTVKESSNFRNIDVVFELGVDFAYSAGDGTELTGTWTMEGNKLVGKFKRVDNGKELIAVREISGNELIQTYTYEGVEAKRIFKKE
modifications: PEPTIDE (1)...(131) wild-type rat intestinal fatty acid binding protein
B2: 18I 31L 72A (protein, listed as Rattus norvegicus)
chain: B1 chain with G73A
modifications: PEPTIDE (1)...(131) wild-type rat intestinal fatty acid binding protein
B3: 18V 31Y 73I 72A (protein, listed as Rattus norvegicus)
chain: B1 chain with I18V, L31Y, G73I
modifications: PEPTIDE (1)...(131) wild-type rat intestinal fatty acid binding protein
B4: 18I 55G 73M 72A (protein, listed as Rattus norvegicus)
chain: B1 chain with L31G, F55G, G73M
modifications: PEPTIDE (1)...(131) wild-type rat intestinal fatty acid binding protein
B5: 38W 106H 117A 72A (protein, listed as Rattus norvegicus)
chain: B1 chain with I18M, L31G, L38W, G73A, R106H, Y117A
modifications: PEPTIDE (1)...(131) wild-type rat intestinal fatty acid binding protein
B6: 18V 31Y 73V 72A (protein, listed as Rattus norvegicus)
chain: B1 chain with I18V, L31Y, G73V
modifications: PEPTIDE (1)...(131) wild-type rat intestinal fatty acid binding protein
B7: 14L 18L 73W 117S 72A (protein, listed as Rattus norvegicus)
chain: B1 chain with Y14L, I18L, L31G, G73W, Y117S
modifications: PEPTIDE (1)...(131) wild-type rat intestinal fatty acid binding protein
B8: 14L 31W 117V 72A (protein, listed as Rattus norvegicus)
chain: B1 chain with Y14L, I18M, L31W, G73A, Y117V
modifications: PEPTIDE (1)...(131) wild-type rat intestinal fatty acid binding protein
B9: 18I 31F 73V 72A (protein, listed as Rattus norvegicus)
chain: B1 chain with L31F, G73V
modifications: PEPTIDE (1)...(131) wild-type rat intestinal fatty acid binding protein
B10: 18V 31I 55L 73V 72A (protein, listed as Rattus norvegicus)
chain: B1 chain with I18V, L31I, F55L, G73V
modifications: PEPTIDE (1)...(131) wild-type rat intestinal fatty acid binding protein
B11: 38M 104S 115A 74F 72A (protein, listed as Rattus norvegicus)
chain: B1 chain with I18M, L31G, L38M, G73A, D74F, A104S, Q115A
modifications: PEPTIDE (1)...(131) wild-type rat intestinal fatty acid binding protein
B12: 14L 18L 31Y 73L 117A 72A (protein, listed as Rattus norvegicus)
chain: B1 chain with Y14L, I18L, L31Y, G73L, Y117A
modifications: PEPTIDE (1)...(131) wild-type rat intestinal fatty acid binding protein
B13: 18L 73F 117G 72A (protein, listed as Rattus norvegicus)
chain: B1 chain with I18L, L31G, G73F, Y117G
modifications: PEPTIDE (1)...(131) wild-type rat intestinal fatty acid binding protein
B14: 18I 31Y 73I 72A (protein, listed as Rattus norvegicus)
chain: B1 chain with L31Y, G73I
modifications: PEPTIDE (1)...(131) wild-type rat intestinal fatty acid binding protein
B15: 104T 115A 74F 72A (protein, listed as Rattus norvegicus)
chain: B1 chain with I18M, L31G, G73A, D74F, A104T, Q115A
modifications: PEPTIDE (1)...(131) wild-type rat intestinal fatty acid binding protein
B16: 18V 31Y 55I 73G 72A (protein, listed as Rattus norvegicus)
chain: B1 chain with I18V, L31Y, F55I
modifications: PEPTIDE (1)...(131) wild-type rat intestinal fatty acid binding protein
B17: 14Q 18S 73I 117W 72A (protein, listed as Rattus norvegicus)
chain: B1 chain with Y14Q, I18S, L31G, G73I, Y117W
modifications: PEPTIDE (1)...(131) wild-type rat intestinal fatty acid binding protein
B18: 14A 18Y 31W 73G 117V 72A (protein, listed as Rattus norvegicus)
chain: B1 chain with Y14A, I18Y, L31W, Y117V
modifications: PEPTIDE (1)...(131) wild-type rat intestinal fatty acid binding protein
B19: 18G 31F 73L 72A (protein, listed as Rattus norvegicus)
chain: B1 chain with I18G, L31F, G73L
modifications: PEPTIDE (1)...(131) wild-type rat intestinal fatty acid binding protein

Experiment: Probe fluorescence ratio response to oleic acid relative to ADIFAB2
Type: binding
Settings: response relative to ADIFAB2
Outline: (§1)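 Fluorescently labeled rat intestinal FABP variants were read at two emission wavelengths, near the unbound maximum (about 420 to 480 nm) and the FFA-bound maximum (about 495 to 580 nm). R = Fλ1/Fλ2 after subtracting probe-free intensity; ΔR = R+agent − R0, normalized to ADIFAB2 (rI-FABP-L72A).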

Row | Molecule | DR/DR OA
1 | B1 | 0.595
2 | B2 | 0.719
3 | B3 | 2.007
4 | B4 | 0.574
5 | B5 | 0.831
6 | B6 | 2.349
7 | B7 | 0.374
8 | B8 | 1.580
9 | B9 | 2.257
10 | B10 | 2.254
11 | B11 | 1.155
12 | B12 | 1.908
13 | B13 | 1.908
14 | B14 | 2.322
15 | B15 | 1.621
16 | B16 | 0.994
17 | B17 | 0.809
18 | B18 | 0.518
19 | B19 | 1.365

Experiment: Probe fluorescence ratio response to arachidonic acid relative to ADIFAB2
Type: binding
Settings: arachidonic acid; response relative to ADIFAB2
Outline: as §1

Row | Molecule | DR/DR AA
20 | B1 | 0.981
21 | B2 | 1.054
22 | B3 | 1.946
23 | B4 | 0.895
24 | B5 | 1.326
25 | B6 | 2.400
26 | B7 | 1.010
27 | B8 | 1.972
28 | B9 | 2.649
29 | B10 | 2.273
30 | B11 | 1.690
31 | B12 | 2.987
32 | B13 | 2.445
33 | B14 | 2.487
34 | B15 | 2.635
35 | B16 | 1.007
36 | B17 | 0.878
37 | B18 | 0.365
38 | B19 | 1.785

Experiment: Probe fluorescence ratio response to linolenic acid relative to ADIFAB2
Type: binding
Settings: response relative to ADIFAB2
Outline: as §1

Row | Molecule | DR/DR LNA
39 | B1 | 1.525
40 | B2 | 1.384
41 | B3 | 2.537
42 | B4 | 1.284
43 | B5 | 1.397
44 | B6 | 2.605
45 | B7 | 1.499
46 | B8 | 1.894
47 | B9 | 2.738
48 | B10 | 2.433
49 | B11 | 1.615
50 | B12 | 2.818
51 | B13 | 1.913
52 | B14 | 2.865
53 | B15 | 2.206
54 | B16 | 1.228
55 | B17 | 0.894
56 | B18 | 0.940
57 | B19 | 1.235

Experiment: Probe fluorescence ratio response to linoleic acid relative to ADIFAB2
Type: binding
Settings: response relative to ADIFAB2
Outline: as §1

Row | Molecule | DR/DR LA
58 | B1 | 1.146
59 | B2 | 1.198
60 | B3 | 2.619
61 | B4 | 1.127
62 | B5 | 1.248
63 | B6 | 2.780
64 | B7 | 1.385
65 | B8 | 2.027
66 | B9 | 3.096
67 | B10 | 2.680
68 | B11 | 1.778
69 | B12 | 2.948
70 | B13 | 2.283
71 | B14 | 3.031
72 | B15 | 2.231
73 | B16 | 1.220
74 | B17 | 0.784
75 | B18 | 1.018
76 | B19 | 1.520

Experiment: Probe fluorescence ratio response to palmitic acid relative to ADIFAB2
Type: binding
Settings: response relative to ADIFAB2
Outline: as §1

Row | Molecule | DR/DR PA
77 | B1 | 1.137
78 | B2 | 1.182
79 | B3 | 1.784
80 | B4 | 1.137
81 | B5 | 0.426
82 | B6 | 1.534
83 | B7 | 0.259
84 | B8 | 1.304
85 | B9 | 1.893
86 | B10 | 1.253
87 | B11 | 0.498
88 | B12 | 1.444
89 | B13 | 1.039
90 | B14 | 1.825
91 | B15 | 0.720
92 | B16 | 0.780
93 | B17 | 0.559
94 | B18 | 0.421
95 | B19 | 1.025

Experiment: Probe fluorescence ratio response to palmitoleic acid relative to ADIFAB2
Type: binding
Settings: response relative to ADIFAB2
Outline: as §1

Row | Molecule | DR/DR POA
96 | B1 | 1.377
97 | B2 | 1.187
98 | B3 | 2.528
99 | B4 | 1.201
100 | B5 | 1.098
101 | B6 | 2.376
102 | B7 | 0.750
103 | B8 | 1.768
104 | B9 | 2.665
105 | B10 | 2.285
106 | B11 | 1.172
107 | B12 | 2.317
108 | B13 | 1.731
109 | B14 | 2.620
110 | B15 | 1.661
111 | B16 | 1.106
112 | B17 | 0.834
113 | B18 | 0.883
114 | B19 | 1.235

Experiment: Probe fluorescence ratio response to stearic acid relative to ADIFAB2
Type: binding
Settings: response relative to ADIFAB2
Outline: as §1

Row | Molecule | DR/DR SA
115 | B1 | 0.267
116 | B2 | 0.305
117 | B3 | 1.139
118 | B4 | 0.360
119 | B5 | 0.071
120 | B6 | 1.330
121 | B7 | −0.005
122 | B8 | 0.742
123 | B9 | 1.294
124 | B10 | 1.233
125 | B11 | 0.356
126 | B12 | 0.762
127 | B13 | 0.663
128 | B14 | 1.310
129 | B15 | 0.877
130 | B16 | −0.094
131 | B17 | −0.044
132 | B18 | 0.158
133 | B19 | 1.690

— patent publication US20060257938A1, “Method of screening for drugs that block ligand binding to a lipid binding protein” (priority 2005, published 2006)
